Experimental data published in patent publication US20050187155A1 (NESTEC S A, published 2005).

T1: MMP-7
T1 sequence (P09237 95-267, species assumed, looked up): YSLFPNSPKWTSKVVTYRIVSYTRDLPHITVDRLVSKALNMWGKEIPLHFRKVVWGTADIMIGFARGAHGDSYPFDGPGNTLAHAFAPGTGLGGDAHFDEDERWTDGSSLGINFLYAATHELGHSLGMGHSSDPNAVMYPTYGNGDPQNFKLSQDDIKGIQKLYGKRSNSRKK


What was measured:
Assay in all cases: cell-based or functional assay
[1] = target: MMP-9
[2] = target: MMP-2
[3] = target: T1, MMP-7
[4] = target: angiotensin-converting enzyme (ACE)

Binder	IC50 for the inhibition of MMPs using a fluorescein conjugated gelatin [1] [µM]	IC50 for the inhibition of MMPs using a fluorescein conjugated gelatin [2] [µM]	IC50 for the inhibition of MMPs using a fluorescein conjugated gelatin [3] [µM]	IC50 for the inhibition of ACE using the substrate FAPGG [4] [µM]
LNENLLRFFVAPFPEVFG [LNENLLRFFVAPFPEVFG (SEQ ID NO:20)]	150	250	300	280
FVAPFPEVFG [FVAPFPEVFG (SEQ ID NO:23)]	400	500	300	650
ENLHLPLPLL [ENLHLPLPLL (SEQ ID NO:19)]	300	200	275	250
ENLLRFFVAPFPEVFG [ENLLRFFVAPFPEVFG (SEQ ID NO:22)]	150	425	1000	250

The remaining lines, values ahead:

IC50 for the inhibition of MMPs using a fluorescein conjugated gelatin [1] [µM]	IC50 for the inhibition of MMPs using a fluorescein conjugated gelatin [2] [µM]	IC50 for the inhibition of MMPs using a fluorescein conjugated gelatin [3] [µM]	IC50 for the inhibition of ACE using the substrate FAPGG [4] [µM]	Binder
50	275	850	55	NENLLRFFVAPFPEVFG [NENLLRFFVAPFPEVFG (SEQ ID NO:21)]
600	450	1200	15	NLHLPLPLL [NLHLPLPLL (SEQ ID NO:12)]
300	150	250	175	VENLHLPLPLL [VENLHLPLPLL (SEQ ID NO:18)]
